Reference: publication PMC3627194, “Xentry, a new class of cell-penetrating peptide uniquely equipped for delivery of drugs” (Scientific Reports, 2013)
Non-standard residues stand in square brackets, D forms with d. Residues, ends and D or L forms follow the SMILES beside them. No end group written: not given here. *: point of attachment. FITC = O=C1OC2(c3ccc(O)cc3Oc3cc(O)ccc32)c2ccc(NC(=S)*)cc21; Biotin = O=C1N[C@H]2[C@H](CS[C@H]2CCCCC(=O)*)N1

How the values were obtained:
WM-266-4 melanoma cells [1] = test: Apoptosis of melanoma cells by Xentry-conjugated anti-B-raf antibody (annexin-V fluos); assay type: cell-based; details: annexin-V fluos staining
Procedure: HepG2 cells were seeded at 1 × 10^5 cells per well into 8-well chamber slides, and cultured overnight at 37°C in an atmosphere of 5% CO2. They were washed thrice with serum-free MEM media and resuspended in 500 μl of serum-free MEM. A 30 μl solution containing conjugation buffer, 0.85 μg of the Xentry peptide biotin-[sequence], 9 μg of a FITC-labelled rabbit IgG (Sigma, MO) or 1 μg of a rabbit polyclonal anti-B-raf antibody (Sigma, MO), and 4.8 μg of transglutaminase was incubated for 1 h at 37°C. The resulting conjugates were added to the cells, which were incubated for 3 h at 37°C and washed thrice with PBS. […] Cells incubated with the Xentry-anti-B-raf antibody conjugate were stained with annexin-V Fluos (Roche Diagnostics NZ Ltd., Auckland) to detect cell apoptosis. The cells were examined using a Nikon E600 fluorescence microscope, and photographed.

live HepG2 cells = details: live unfixed cells, 3 h 37°C, β-galactosidase substrate C12FDG 10 min, fluorescence microscopy
Procedure: (a) Visualization of the internalization of an unlabelled Xentry-β-galactosidase conjugate, and unconjugated β-galactosidase, after a 10 min incubation with live cells preloaded with the green fluorescent substrate C12FDG.
HepG2 cells were seeded at 1 × 10^5 cells per well into 8-well chamber slides, and cultured overnight at 37°C in a 5% CO2 atmosphere. They were washed thrice with serum-free MEM media, and 500 μl of serum-free MEM added to the wells. A Xentry peptide (biotin-[sequence]; Peptide 2.0 Inc., Chantilly, VA) where LCLRP was fused to a polyglutamine stretch was conjugated to recombinant β-galactosidase. A 30 μl solution containing conjugation buffer (5 mM CaCl2, 1 mM DTT, 50 mM Tris-HCl), 0.84 μg of Xentry peptide, 16.5 μg of β-galactosidase (5 U; Sigma, MO), and 4.8 μg of transglutaminase (Ajinomoto, Itasca, IL) was incubated for 1 h at 37°C. The resulting conjugate was added to the cells, which were incubated for 3 h at 37°C. The cells were washed thrice with PBS, and the β-galactosidase substrate 5-dodecanoylaminofluorescein di-β-D-galactopyranoside (Imagene C12FDG; Invitrogen Life Technologies New Zealand Ltd) added, followed by incubation for 10 min at 37°C. The cells were washed, and examined using a Nikon E600 fluorescence microscope and photographed.

[2] = Biodistribution of a Xentry-β-galactosidase conjugate in mice (X-gal staining); assay type: in vivo, Balb/c mice
Procedure: One milligram of recombinant β-galactosidase (Medicago AB, Uppsala, Sweden) was cross-linked to 0.2 mg of a FITC-labelled Xentry peptide fused to a polyglutamine stretch (FITC-lclrpvggrrQQQQQQrr; Peptide 2.0 Inc., Chantilly, VA) with 4.8 μg of transglutaminase in 40 μl of transglutaminase buffer for 1 h at 37°C. […] Control mice (one mouse per time point) were intravenously injected with 1 mg of unconjugated β-galactosidase. The heart, lungs, liver, spleen, pancreas, kidneys, stomach, small intestine, colon, muscle and brain of each mouse were collected, and frozen at −80°C. Frozen organ sections were fixed in 0.25% glutaraldehyde for 15 min, washed thrice with PBS and stained with 1 mg/ml of X-gal (Sigma, MO) for 3 h at 37°C. The sections were washed thrice with PBS, examined by light microscopy and photographed.

WM-266-4 melanoma cells [3] = test: Xentry-KALA fusion peptide delivery of anti-B-raf siRNA, apoptosis (annexin-V fluos); assay type: cell-based; details: 10 μM Xentry-KALA fusion peptide with 30 nM Tex615-labelled siRNA against B-raf, 72 h
Procedure: Figure 3 Xentry-mediated delivery of antibody and siRNA cargoes into cells. (a) Uptake of Xentry-conjugated and unconjugated FITC-labelled rabbit IgG by HepG2 cells. Cell nuclei were stained blue with DAPI. (b) Representative cell showing staining of tubulin by a Cy3-labelled anti-β-tubulin antibody delivered to HepG2 cells by Xentry. HepG2 cells were incubated with the Xentry- anti-β-tubulin antibody conjugate for 1 h, washed, then incubated and photographed 24 h later. For comparison, a representative fixed and permeabilized cell is shown which has been stained by the free anti-β-tubulin antibody. […] (c) The abilities of a Xentry-conjugated and unconjugated anti-B-raf antibody to induce the apoptosis of WM-266-4 melanoma cells, as evidenced by staining of cells with annexin-V fluos (green). […] For comparison, the anti-B-raf siRNA was transfected into cells using the PolyMag agent. The siRNA was omitted from controls. Scale bar, 50 μm.
A 600 μl solution was prepared containing 30 nM of a Tex615-labelled siRNA against B-raf (sense 5′-XAGAAUUGGAUCUGGAUCAUTTY-3′; antisense 5′-[…]-3′; X = C12 amino, Y = Tex615) (Integrated DNA Technologies, Iowa) and 10 μM of a Xentry-KALA fusion peptide (biotin-[…]; Peptide 2.0 Inc., Chantilly, VA). […] Cells were stained with annexin-V Fluos to detect apoptotic cells by fluorescence microscopy, and photographed. […]

syndecan-4 = biological target: T1, syndecan-4 (Homo sapiens, UniProt P31431); test: Anti-syndecan 4 antibody blockade of Xentry uptake by HepG2 cells; assay type: cell-based; details: FITC-lclrpvg 10 μM, 3 h
T1 construct: endogenous in cells; host or cells: HepG2 (ATCC)
T1 sequence (P31431 19-198): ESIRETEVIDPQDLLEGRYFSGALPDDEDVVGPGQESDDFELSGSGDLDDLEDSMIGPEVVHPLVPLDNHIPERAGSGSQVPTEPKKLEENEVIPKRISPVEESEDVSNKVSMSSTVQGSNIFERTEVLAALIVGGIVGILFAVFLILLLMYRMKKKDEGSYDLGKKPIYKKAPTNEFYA
Procedure: Cell nuclei were stained blue with DAPI. […] Scale bar, 50 μm.
The media was replaced with 500 μl of MEM media containing 10% FCS and either 1 μg/ml of a goat anti-human syndecan-4 antibody (R&D Systems, Minneapolis, MN), or 1 μg/ml of the control goat anti-human TNF-related apoptosis-inducing ligand (TRAIL) antibody (Santa Cruz Biotechnology Inc., Santa Cruz, CA). The cells were then incubated at 37°C and 5% CO2 for 30 min. FITC-labelled Xentry (FITC-lclrpvg) was added at a final concentration of 10 μM and the cells incubated for 3 h at 37°C in a 5% CO2 atmosphere. The cells were washed thrice with PBS, fixed with 4% formaldehyde for 15 min, washed with PBS, and DAPI added for visualization of cell nuclei. They were examined using a Nikon E600 fluorescence microscope, and photographed.

[4] = assay type: in vitro ADME; details: FITC-labelled peptide incubated in serum 0, 1 and 4 h, then incubated with HepG2 cells; read-out cell uptake by fluorescence microscopy
Procedure: (§1) Supplementary Figure 3. The D-isomeric form of Xentry aa 16-22 is cell permeable, and is stable in serum for at least 4 h.
(§2) (a) FITC-labelled D-isomeric Xentry was incubated with HepG2 cells at concentrations of […] for 3 h.
(§3) Uptake was recorded by fluorescence microscopy. Cell nuclei were stained with DAPI. (b) FITC-labelled L-isomeric and D-isomeric forms of Xentry were incubated in serum for 0, 1, and 4 h before incubation with HepG2 cells. Cell nuclei were stained with DAPI. Scale bar, 50 μm. […]

HepG2 cells = test: Assay to test for cell permeability of peptides; assay type: cell-based; details: 3 h
Procedure: Figure 1 Cell-permeability of X-protein peptides. (a) X-protein peptides aa 1–20 and 16–35 are cell-permeable. Four FITC-labelled peptides encompassing aa 1–20, 16–35, 21–40 and 34–53 from the N-terminal region of the X-protein were incubated at 10 μM with HepG2 cells and their uptake by the cells recorded by confocal microscopy. Cell nuclei were stained blue with DAPI. (b) The sequence of the first 35 N-terminal residues of the HBV X-protein are shown with the sequence of Xentry (LCLRPVG; residues 16–22) highlighted in red. Short FITC-labelled peptides (10 μM) aa 16–26, 16–24 and 16–22 (Xentry) derived from peptide aa 16–35 also permeate HepG2 cells (upper panel). […] Cell nuclei were stained blue with DAPI. […] Cell nuclei were stained blue with DAPI. Scale bar, 50 μm.
HepG2 cells (ATCC, Manassas, VA) were seeded into 8-well chamber slides at 1 × 10^5 cells per well in MEM media (Gibco, Life Technologies New Zealand Ltd) containing 10% FCS and PSG. […] L-isomeric peptides were diluted in 500 μl of MEM media without FCS, whereas D-isomeric peptides were diluted in the same media containing FCS, and each added to cells at a final concentration of 10 μM, or as indicated. The cells were incubated for 3 h at 37°C in a 5% CO2 atmosphere, washed with PBS, fixed with 4% formaldehyde for 30 min, and washed thrice with PBS. A drop of Prolong Gold anti-fade reagent with DAPI (Invitrogen, Life Technologies New Zealand Ltd) was added, and the cells mounted and examined with a Nikon E600 fluorescence microscope or a Leica TCS-SP2 confocal microscope.
as §1, §2, §3

In the case of “Biotin-LCLRPVGGGRRRQQQQQQRRR [Xentry-anti-B-raf antibody conjugate, rabbit polyclonal anti-B-raf antibody conjugated to Xentry polyglutamine peptide]”, the “Apoptosis of WM-266-4 melanoma cells” value (WM-266-4 melanoma cells [1]) is reported as “undergo apoptosis”.

With “unconjugated β-galactosidase: recombinant β-galactosidase without Xentry, control [reference compound]” the “Uptake by live HepG2 cells” value (live HepG2 cells) was “not” and the “X-gal staining of organs” value ([2]; 1 mg unconjugated β-galactosidase i.v., one mouse per time point, data not shown) was “did not stain”.

In the case of “Biotin-LCLRPVGGGWEAKLAKALAKALAKHLAKALAKALKACEA (cysteine pairing not given here) [Xentry-KALA fusion peptide, tested as complex with anti-B-raf siRNA]”, the “Apoptosis of WM-266-4 melanoma cells” value (WM-266-4 melanoma cells [3]) is reported as “causing cell apoptosis”.

With “FITC-lclrpvggrrQQQQQQrr [Xentry-β-galactosidase conjugate, recombinant β-galactosidase cross-linked to FITC-labelled D-form Xentry polyglutamine peptide (injected into mice)]” the “Retention in stained organs at 1 h, except for the brain” value ([2]; 1 mg i.v., 1 h, intensity of staining diminished) was “retained the bioactive conjugate”, the “β-galactosidase activity in organs at 6 h” value ([2]; 1 mg i.v., 6 h) was “only the spleen and small intestine retained some β-galactosidase activity” and the “β-galactosidase activity in organs by 24 h” value ([2]; 1 mg i.v., 24 h, data not shown) was “completely lost”. The Distribution within organs ([2]; 1 mg i.v., X-gal stained sections) was “concentrated in the enterocytes of the small intestine, epithelium of the stomach, and in the marginal zone or marginal sinus of the spleen”, the “Staining of pancreas, colon and muscle at 15 min” value ([2]; 1 mg i.v., data not shown) was “poorly stained” and the “X-gal staining of organs at 15 min” value ([2]; 1 mg i.v., lungs, liver, spleen, kidneys, stomach, small intestine, colon, muscle, brain listed as stained) was “most of the organs stained blue”.

For `CC(C)C[C@@H](NC(=O)[C@@H](CS)NC(=O)[C@@H](CC(C)C)NC(=S)Nc1ccc2c(c1)C(=O)OC21c2ccc(O)cc2Oc2cc(O)ccc21)C(=O)N[C@H](CCCNC(=N)N)C(=O)N1CCC[C@@H]1C(=O)N[C@@H](C(=O)NCC(=O)O)C(C)C` [D-isomeric form] ({FITC}-[dL][dC][dL][dR][dP][dV]G-OH), the “Uptake by HepG2 cells after control anti-TRAIL antibody” value (syndecan-4; 1 μg/ml control antibody against TRAIL) was “no effect”, the “Uptake by HepG2 cells after anti-syndecan-4 antibody” value (syndecan-4; 1 μg/ml goat anti-human syndecan-4 antibody 30 min pre-incubation, MEM 10% FCS) was “blocked” and the “Time stable in serum” value [4] was “at least 4 h”. The “Uptake into HepG2 cells at increasing concentrations” value (HepG2 cells; FITC-labelled D-isomeric Xentry 10, 20, 50 and 100 µM) was “increased uptake” and the “Cell permeability (HepG2 cells)” value (HepG2 cells; FITC-labelled D-isomeric Xentry, media containing FCS, fluorescence microscopy) was “cell-permeable”.
